T1: human CD20 antigen (human, UniProt P11836 1-297)
T1 construct: whole, on cells; also called human CD20 molecule
T1 sequence (looked up): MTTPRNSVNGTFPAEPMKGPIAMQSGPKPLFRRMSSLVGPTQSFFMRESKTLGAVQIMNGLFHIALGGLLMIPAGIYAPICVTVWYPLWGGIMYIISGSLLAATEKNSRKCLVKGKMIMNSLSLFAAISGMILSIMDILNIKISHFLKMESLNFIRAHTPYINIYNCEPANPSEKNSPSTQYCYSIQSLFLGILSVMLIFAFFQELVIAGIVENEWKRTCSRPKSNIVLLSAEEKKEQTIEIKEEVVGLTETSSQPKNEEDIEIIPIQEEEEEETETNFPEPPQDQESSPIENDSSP

B1: humanized antibody 1782 clone ff (antibody, V domains shown)
VH: QVQLVQSGAEVKKPGASVKVSCKASGYTFTSYWMHWVKQAPGQGLEWIGYITPSTGYTDYNKKFKDKATLTADRSSSTAYMELSSLRSEDTAVYYCARSGPYFDVWGAGTTVTVSS
VL: DILLTQSPATLSVSPGERATLSCRASQNIGTSIHWYQQRPGQSPRLLIKYASESFSGIPSRFSGSGSGTDFTLTINSLQPEDIADYYCQQSNSWPFTFGSGTKLEIK
notes: kg1 constructs (C kappa / C gamma1 vector); also called h1782ff; hz1782-ff14
B2: humanized antibody 1782 clone fv (antibody, V domains shown)
VH: B1 VH with V11L
VL: B1 VL
notes: kg1 constructs; also called h1782fv; hz1782-fv02
B3: humanized antibody 1782 clone sf (antibody, V domains shown)
VH: B1 VH
VL: B1 VL with V13L, I29V, I33L, R39K, S54R, S56T, N76S, Q79E, I83F
notes: kg1 constructs; also called h1782sf; hz1782-sf23
B4: humanized antibody 1782 clone ss (antibody, V domains shown)
VH: B1 VH with K62Q, K65Q, D66G
VL: B1 VL with V13L, I29V, I33L, R39K, S54R, S56T, N76S, Q79E, I83F
notes: kg1 constructs; also called h1782ss; hz1782-ss21

Positions count from the first letter of the chain named.

One test has as its target T1, human CD20 antigen. Put plainly: Scatchard analysis on Raji cells, FITC anti-mouse IgG detection.
Consider mouse antibody 2B8, for which the Kd came out at 6.79 nM.

In the next test the target is T1, human CD20 antigen. In words: Scatchard analysis on Raji cells, FITC-labeled Protein A detection.
On to B1, for which binding was put at a Kd of 4.38 nM.

Molecule B2 came in with a Kd of 6.76 nM.

As to B3, binding was put at a Kd of 7.43 nM.

For the molecule B4, the dissociation constant Kd amounted to 8.64 nM.

Another test concerns the target T1, human CD20 antigen. Put plainly: Scatchard analysis on Raji cells, FITC-labeled Protein A detection; repeated from Table 8.
Consider B1, for which the dissociation constant Kd came to 4.38 nM.

As to B2, the dissociation constant Kd turned out to be 6.76 nM.

B3 showed an equilibrium dissociation constant (Kd) of 7.43 nM.

Consider B4, for which the Kd came out at 8.64 nM.

Source of the values: patent US20110263825A1 (OSAKA UNIVERSITY, published 2011).
